Experimental data published in paper PMC7062800.

Tests used:
[1] = test system: RdhK Hybrid A (Desulfitobacterium hafniense DCB-2 (chimera)); assay: EMSA; settings: 200 uM Cl-OHPA; EMSA: 100 ng DNA, 2 uM protein, 200 uM effector, 15 uL; buffer 100 mM Tris-HCl pH 8.5, 40% glycerol, 10 mM MgCl2, 500 mM NaCl, 5 mM EDTA, 10 mM DTT …
[2] = test system: RdhK Hybrid B (Desulfitobacterium hafniense DCB-2 (chimera)); assay: EMSA; settings: 200 uM Cl-OHPA; EMSA: 100 ng DNA, 2 uM protein, 200 uM effector, 15 uL; buffer 100 mM Tris-HCl pH 8.5, 40% glycerol, 10 mM MgCl2, 500 mM NaCl, 5 mM EDTA, 10 mM DTT …

Sequence	binding signal [1]	binding signal [2]
GAATTCTCAGGCGATGTAACCGCTTTCAAAGTTAATACACATTAATACTCTTAACAATGTGATAGCTATGATTGCACCG (double strand) [mgl-DB7]	90 % DNA bound	–
GAATTCTCAGGCGATGTAACCGCTTTCAAATTTAGTATACGCTAAATATCTTAACAATGTGATAGCTATGATTGCACCG (double strand) [mgl-DB8]	100 % DNA bound	100 % DNA bound
